The data set has as its target Factor X, P00742.

The kcat/KM is the second-order rate constant that governs catalysis at low substrate concentration. The KM is the concentration of substrate that gives half-maximal velocity.

Factor X, P00742, sequence (P00742 whole entry, looked up): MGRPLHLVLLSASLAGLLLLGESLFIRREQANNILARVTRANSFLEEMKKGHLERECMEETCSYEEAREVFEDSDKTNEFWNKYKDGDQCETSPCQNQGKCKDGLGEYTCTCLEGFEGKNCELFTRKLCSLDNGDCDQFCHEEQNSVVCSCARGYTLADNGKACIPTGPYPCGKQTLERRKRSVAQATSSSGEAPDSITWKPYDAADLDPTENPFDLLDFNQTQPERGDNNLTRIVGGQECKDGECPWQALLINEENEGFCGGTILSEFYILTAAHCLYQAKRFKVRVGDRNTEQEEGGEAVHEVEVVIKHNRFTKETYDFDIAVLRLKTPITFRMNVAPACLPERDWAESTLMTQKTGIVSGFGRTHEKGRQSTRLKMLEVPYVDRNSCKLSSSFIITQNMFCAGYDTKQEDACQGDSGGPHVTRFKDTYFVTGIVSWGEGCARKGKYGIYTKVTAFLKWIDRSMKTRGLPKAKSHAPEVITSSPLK

B1: FIXa-Y155F/K228N/I251S/R318Y/R338E/R403E/E410N (protein)
chain 1: not shown
chain 2: not shown
Regarding B1, the kcat/KM worked out at 1.4e+08 M⁻¹ s⁻¹.

B2: FIXa Y155F/K247N/N249S/R338E/R403E (protein)
chain 1: not shown
chain 2: not shown
For the protein B2, the “% of WT kcat/KM” value was found to be 299% and the kcat/KM turned out to be 1.4e+08 M⁻¹ s⁻¹.

B3: FIXa-Y155F/K247N/N249S/R318Y/R338E/T343R/R403E/E410N (protein)
chain 1: not shown
chain 2: not shown
B3: the kcat/KM was 4e+08 M⁻¹ s⁻¹.

B4: FIXa-Y155F/R338E/T343R/R403E/E410N (protein)
chain 1: not shown
chain 2: not shown
B4: the kcat/KM worked out at 2.4e+08 M⁻¹ s⁻¹.

B5: FIXa-Y155F/K247N/N249S/R338E/T343R (protein)
chain 1: not shown
chain 2: not shown
With B5, the KM was determined as 0.0153 µM.

B6: FIXa-R318Y/T343R/R403E/E410N (protein)
chain 1: not shown
chain 2: not shown
On to B6, for which the kcat/KM worked out at 5.8e+07 M⁻¹ s⁻¹.

B7: FIXa-Y155F/K247N/N249S/N260S/R318Y/R338E/R403E/E410N (protein)
chain 1: not shown
chain 2: not shown
For B7, the kcat/KM came out at 5.7e+07 M⁻¹ s⁻¹.

B8: FIXa-N260S/R318Y/R338E/T343R/R403E/E410N (protein)
chain 1: not shown
chain 2: not shown
Take B8: the kcat/KM is 2.9e+08 M⁻¹ s⁻¹.

B9: FIXa-K228N/I251S/R318Y/R338E/R403E/E410N (protein)
chain 1: not shown
chain 2: not shown
For the protein B9, the catalytic efficiency (kcat/KM) was 2.1e+08 M⁻¹ s⁻¹.

B10: FIXa R318Y/R338E/E410N (mature FIX numbering) (protein)
chain 1: not shown
chain 2: not shown
For B10, the “% of WT kcat/KM” value was found to be 770%.

B11: FIXa-Y155F/K247N/N249S/R318Y/R338E/T343R/E410N (protein)
chain 1: not shown
chain 2: not shown
As to B11, the KM was found to be 0.0177 µM.

B12: FIXa K228N/R338E/R403E (mature FIX numbering) (protein)
chain 1: not shown
chain 2: not shown
Regarding B12, the “% of WT kcat/KM” value is on record as 108%.

B13: FIXa-Y155F/K247N/N249S/R338E/R403E (protein)
chain 1: not shown
chain 2: not shown
With B13, the Michaelis constant (KM) amounted to 0.0409 µM.

B14: FIXa Y155F/K247N/N249S/R338E/T343R (protein)
chain 1: not shown
chain 2: not shown
For B14, the “% of WT kcat/KM” value amounted to 1579% and the kcat/KM came out at 7.3e+08 M⁻¹ s⁻¹.

Source of the values: patent publication US11491212.
